Assay results as given in the DeepSol protein solubility set.

Assay: soluble on expression in E. coli; label from the status in PepcDB or PDB records
In the case of “MGHHHHHHSHMTDDKDVLRDVWFGRIPTCFTLYQDEITEREAEPYYLLLPRVSYLTLVTDKVKKHFQKVMRQEDISEIWFEYEGTPLKWHYPIGLLFDLLASSSALPWNITVHFKSFPEKDLLHCPSKDAIEAHFMSCMKEADALKHKSQVINEMQKKDHKQLWMGLQNDRFDQFWAINRKLMEYPAEENGFRYIPFRIYQTTTERPFIQKLFRPVAADGQLHTLGDLLKEVCPSAIDPEDGEKKNQVMIHGIEPMLETPLQWLSEHLSYPDNFLHISIIPQPTD”, the “soluble on expression in E. coli” value is reported as “not soluble”. With “MELDDALDELSDSLGQRQPDPDENKPLDDKVKEKIKAEHSEKLGERDDTIPPEYRHLLDNDGKDKPEKPLTKNTEKPGQDQDPIDALSEDLDSCP” the “soluble on expression in E. coli” value was “soluble”. For “MGSDKIHHHHHHMAKTNPGRFFEDYTVGQTLHHAVPRTVTNGERALYHALYPARHALYSSDAFAQSCGLPGSPIDDLAAFHVVFGKTVPDVSLNAVANLGYAEGRWLKPVYAGDTLRSVSEVIGLKQNSNGKTGVVYVRTRGLNQRDETVMEYVRWVMVRKRDLDAPAPEIVVPELKKALAPNDLVVPEGLDFTAYDFALAGEPHRWGDYAVGETIDHVDGVTVEEAEHMLATRLWQNTAKVHFDLTFRPDGRLIYGGHVISMARALSFNGLANAQIIVGLNGGAHANPCFAGDTIKAWTEVLDKAETAAPGVGALRLRLVATKGGAPFALHGEDGKYLPEVLLDLDYWVLMPK”, the “soluble on expression in E. coli” value was “not soluble”. For “MISIVGIGSGNRVEELTIKAYNTLKNSDIGIYPGNFIGEELKELFEDKTMFTGRDITSEKIKNIFHNNRDKNICLMVSGDPALYSGQFNTNLCLDEHIKWFNEHNYNYEMIPGLSSLSILCAKKSIDLTPFSKTQNVFITSIERLRDLKCFNYTELKSILSTKPVLALYQSLKEFDNIKSLLMEFYPPTTKVIFAQSLSWSNECIFETDLKTLNETESTTSQFNDQTLILVYPSTILTIK”, the “soluble on expression in E. coli” value was “not soluble”. In the case of “MAEQRWTGQLDLTVFNNGQSSKARNIFFEKALKVLRPIYLEQSPVPTFYIVNVGGGYLDGDRYRVNVNLEDNAQVTLTSQGATKIYKTPNDHVEQYQTFNLSNQSYMEFVADPIIAYENAKFFQHNTFNLKEDSAMFYTDILTPGYSSNGQDFTYNYMHLINEIYIDNQLVVFDNMMLSPDKSRLDGIGYMENYTHLGSAYFIHPDVNQSFIDDIYAAVADFQKQYDCRIGISQLPTHGLAVRILTKRTQIIEEILTRVQSYINQTIYHRQINFLRKYLEHHHHHH”, the “soluble on expression in E. coli” value is reported as “not soluble”. With “YSLYNPLKEAELQIEATRAEHERNQQAYNQLQATDISRQVQHDSDATRQALQAWQNSQTELARIDSQVQYLSAQLKQTDPLTGILTRAQNLCAAQGYSADICRQVAKAADTNDLTLFETELDTYIERVEMAESELDKARQGGDAQAVETARHAYLNALNRLSRQIHSLKTGVAGIRMPNLAELISRSANTAVSEQAAYNTGRQQAGRRIDRHLTDPQQQNIWLETGTQQTDYHSGTHRPYQQTTNYAHIGIQTGITDRLSVGTILTDERTNNRFDEGVSARNRSNGAHLFVKGENGALFAAADLGYSNSRTRFTDYDGAAVRRHAWDAGINTGIKIDTGINLRPYAGIRINRSNGNRYVLDGAEINSPAQIQTTWHAGIRLDKTVELGQAKLTPAFSSDYYHTRQNSGSALSVNDRTLLQQAAHGTLHTLQIDAGYKGWNAKLHAAYGKDSNTARHKQAGIKIGYNW” the “soluble on expression in E. coli” value was “not soluble”. For “MAHHHHHHMNQDLDKELREALQQDKYDLQLFLRFLKSYVVSGSQPEKQLLLGILLQALPRFHTSDFSACISLISSHVQDASYIEKDIILIYDLENYLSSGNFPQFWQVWRESEGTLPARPSFEPNMRAAILTVIGCTLGHIQTKDLSVYLGLKSGEKLEEVLREAARIAGDAVQLVGADEQAVVFQKSVFNAPESDSNQELKRFSDTVTIVSL”, the “soluble on expression in E. coli” value was “soluble”. With “SLPHIITRKVISVEQNWLQQLANAISDPLQLLQQLEIDPSPWQDGFEARKLFAQRVPQSFVDRMQKGNPADPLLRQVLPLSAEFEIHPGYSHDPLDEQNNTVPGLLHKYKNRCLLIVKGGCAINCRYCFRRHFPYEDNKGGKSAWQQSLDYIAQNPQLNEVIFSGGDPLMAKDHEIAWLMERIAAIPHIKRLRIHSRLPVVIPARITDELVELFAQTRLQVLLVTHINHANEINLELKQQMARLRAVNVTLLNQGVLLKGVNDTVDAQVSLSETLFDAGILPYYLHVLDKVQGAAHFYVSDDKARQIMAGLIEQVSGYLVPKLTREIGGRPSKTPLDLHLE” the “soluble on expression in E. coli” value was “not soluble”. For “MSLTIKLIAIDIDGTLLNEKNELAQATIDAVQAAKAQGIKVVLCTGRPLTGVQPYLDAMDIDGDDQYAITFNGSVAQTISGKVLTNHSLTYEDYIDLEAWARKVRAHFQIETPDYIYTANKDISAYTIAESYLVRMLIQYREVSETPRDLTISKAMFVDYPQVIEQVKANMPQDFKDRFSVVQSAPYFIEVMNRRASKGGTLSELVDQLGLTADDVMTLGDQGNDLTMIKYAGLGVAMGNAIDEVKEAAQAVTLTNAENGVAAAIRKYALNEGHHHHHH”, the “soluble on expression in E. coli” value was “soluble”. For “MKQRGGFLGGQLLIAMPGMNDKRFIRSVIYICAHSDAGAMGIILNQLHHIGFPELLLHLGVINSGQKKDLSEPIKKFPVRYGGPVDPSRGFVLHSDDYACEETVLVADKICFTATIDILKAISCEKGPQHALIALGYAGWKAGQLEAEISTNGWLISSTSPSFLFESDLNRKYDESLIRMGINPTYLVSEMGHA”, the “soluble on expression in E. coli” value was “not soluble”. With “MDVTCNIKNGRCEQFCKNSADNKVVCSCTEGYRLAENQKSCEPAVPFPCGRVSVSQTSK” the “soluble on expression in E. coli” value was “soluble”. In the case of “MPQPKKDKPDTPLRSDAQRNRERILAVATEELTHCANAPLSAIAKKAGVGQGTFYRNFPNREALVLEIYRYGMQQVAEAAPEMLATGEPDLALRQWMDRLAEFAMTKAGLADAIRLVTSAPGAPEKPRPTPLEDAAELLLRANHEAGTIRPGVTGDDFFLVLGGLWLIDPGENWQPRVTRFLDLVMDGLRAGAPGR”, the “soluble on expression in E. coli” value is reported as “not soluble”. With “MSTLLPFPCEEKIPEGKYVLRTFEIKEGQVKEKLKDLNYEILASLSGVDLTFEKEEEWKKAKEILSDYVYTDRPESLEETLGRILKEKGFTLSTAESCTAGMLSSRIVNVPGSSEYFVGGFVVYSNDLKVKYLCVSEDTLKKYGAVSWQTCLEMTVGLKSNLGTDCGIAITGIAGPGGTLTKPQGLTYIGIFVKDKLTVIKRIFKGSRNENRFLSTQTAIFYLLKLLKR” the “soluble on expression in E. coli” value was “soluble”. For “GSHMSAMAESKVLVKGTPFNKPVIKGKLENNYDMSQDEVSLLLFLKTHGGKIPLYRIKNETGLKDPESVLKNLMDYGFALEDKERLGEKIVLTSEGEFVAQAIRVRDEELRLKEMKQKKNVNRSSAPPQ”, the “soluble on expression in E. coli” value was “soluble”. With “MAHHHHHHMAASANGSTKGSETDLPIGKDGTTLHLKCKSDELADRIIFVGDPGRVDVISGYFDKDSIRASRDHREIRFATGTYKGTPVTVISTGMGVDNIEIVLNEIHALKEYDMERGQWRHRKGDADAPSAGPFFDPSTMKIIRLGTCGSPAESVPPLALAVTRHAIGMDNTSLYYSAGTRETSKDQQEIRRIVREQTGLRAIDIYTSMAHPNITKSICAACDAHNAATGSEADKQQYVIGTTATASGFYGCQGRRVGRFMKHLTVPNMVEELGSLKFNLSNGVEVVTNIEMETSAICYLSDMLGYQAGAACVVVSKRVGEKKMFLGDQLDAAMKRCIKIILEALVSA” the “soluble on expression in E. coli” value was “soluble”. With “MKARKRKEQTFHEYFKEWVDLYKVGAIRSITLQKYYVTEQKIQELVPDLKIKDLDRYTYQQLLNSYAVTHEKQTTMDFHHHLKGAILDAVDEGVISQNPTRKIVIKGKTPRPKKAKFLNQFEVQALLKELNLKEDINWDWFILLIIKTGLRFSEALALTPSDFDFSKQKIIINKTWDYKMVTGSFQPTKNESSNRKIQIDWQLAMQFSQLIKMKDPDKPIFVKSRVFNSTINNRLKVLCENANIPTITVHSLRHTHASLLLFAGVSIASVANRLGHSSMTTTQETYLHIIQELENQDNDKIIRHLSMLM” the “soluble on expression in E. coli” value was “not soluble”. In the case of “MKKKIGLLVMAYGTPYKEEDIERYYTHIRRGRKPSPEMLEDLTERYRAIGGISPLATITLEQAKKLEKRLNEVQDEVEYHMYLGLKHIEPFIEDAVKEMHNDGIQDAIALVLAPHYSTFSVKSYVGRAQEEAEKLGNLTIHGIDSWYKEPKFIQYWVDAVKSIYSGMSDAEREKAVLIVSAHSLPEKIIAMGDPYPDQLNETADYIARGAEVANYAVGWQSAGNTPDPWIGPDVQDLTRELNEKYGYTSFVYAPVGFVAEHLEVLYDNDFECKVVTDEIGAKYYRPEMPNASDAFIDCLTDVVVKKKESVM”, the “soluble on expression in E. coli” value is reported as “soluble”. In the case of “MVVNTHRVPSVDVLLDVITERIGLINGAKKLYTTSGTLVKDINKIKDGQNYVASSSHFTPAAYGGQHQPIQKEVKLKKKKKKRSQTVQPRKTEHIELGDEISIPLNEPVVLEKKKKKKKKLVQKNLDLHGSIETLAETAEIELPSEIEDSEEEDEHEHRRSATPDHHRPATKHSVAPSRASSRRGSRRDEEKREEEDEERKKKDEKKRKSVSSSRRKSQAQHHGQPNWGDLSSFTKNIESLLKN”, the “soluble on expression in E. coli” value is reported as “not soluble”. With “VSAEEQDTRSGGIQVIARAAELLRVLQAHPGGLSQAEIGERVGMARSTVSRILNALEDEGLVASRGARGPYRLGPEITRMATTVRLGVVTEMHPFLTELSRELDETVDLSILDGDRADVVDQVVPPQRLRAVSAVGESFPLYCCANGKALLAALPPERQARALPSRLAPLTANTITDRAALRDELNRIRVDGVAYDREEQTEGICAVGAVLRGVSVELVAVSVPVPAQRFYGREAELAGALLAWVSKVDAWFNGTEDRK” the “soluble on expression in E. coli” value was “not soluble”. For “MAGDPMVLKRIRDMFVASVHEGLDKMENPKVMLNQYVRDMESDIAKAKQTIVKQHTIAYQFKKKYEEAAEVAGKRKNQAQLAFDAGEEELAKKALTEMKYLEGKAAEHKASYEQANSQLADLKEQLAALETKLQDVKDKKQALIARANAAKAKEHMNTTFDKIDSESAYREFLRIENRIEEMEIRANYSKSAEAGTELTRKEFADDVEAEIEKMRTLSLQKSDQTKAANELEHHHHHH”, the “soluble on expression in E. coli” value was “soluble”. With “MPMAKPLKYPVSALVVLYSGDGGILLIERTHPEGFWQSVTGSLEPGETVAQTARREVWEETGILLADGQLQDWHDSTVYEIYHHWRHRYPKGVFENREHLFSAEIPRDTPIALQPEEHVSYGWFDMEEAAEKVFSPSNRRAILELGRFLGKR” the “soluble on expression in E. coli” value was “not soluble”. With “MQNFTLHTPTKVLFGTGQIAQLTQEIPADARILITYGGGSIKQNGVLDQVHQALKGFDFLEFGGIEPNPTYETLMKAVELCRTEGINFLLAVGGGSVLDGTKFIAAAVNYPQDPWHILETTGRDITEALPMGSVLTLPATGSEANNGAVISRRSTGDKQHFFSPHVQPLFAVLDPVVTYTLPPRQVANGVVDAFVHTIEQYLTYPVDAKVQDRFAEGLLLTLIEEGPKALKDPENYNVRANIMWSATMALNGLIGAGVPQDWATHMLGHELTARHGLDHAQTLAVVLPALLVAKKQQKRAKLLQYAERVWGLREGSEDQRIDAAIEATRHFFESLGVATRLSAYKLDGSSIPDLIKKLEEHGMTKLGEHSDITLADSKRIYEAAV” the “soluble on expression in E. coli” value was “not soluble”.
